System: MS2 coat protein
Assay: apparent KD of MS2 coat protein; designed switch direction (-1 OFF switch, 1 ON switch): 1; higher = weaker reporter binding
Procedure, shortened: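 SNAP-549-labelled MS2 coat protein was titrated, doubling from 0.7 or 1.5 nM to 3 µM, over designed RNA switches transcribed on Illumina chips by stalled E. coli RNA polymerase. Runs were done without input, with 200 uM small-molecule ligand, or with an oligonucleotide input. Apparent KD is the per-design median over clusters of curve-fitted normalised fluorescence.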

[1] = input ligand: microRNA oligo, concentration not stated
[2] = Eterna round: R95, input ligand: FMN 200 uM
[3] = Eterna round: R95, input ligand: microRNA oligo, concentration not stated
[4] = Eterna round: R95, input ligand: none

GUGGUCUGACAUGAGGAUCACCCAUGUGGAAUAAAUACGGGUCAGGAUAUCUUGAGGAUCACCCAAGAGAAGGGACGGAUUGUU (Eterna round: R96, puzzle: Same State NG 3)
apparent KD of MS2 coat protein (input ligand: FMN 200 uM): 24 nM
apparent KD of MS2 coat protein [1]: 23.5 nM
apparent KD of MS2 coat protein (input ligand: none): 35.1 nM

GUGGUCUGACAUGAGGAUCACCCAUGUGGAAUAAAUACGGGUUAGGAUAUCUUGAGGAUCACCCAAGAGAAGGGAUGGAUUGUU (Eterna round: R96, puzzle: Same State NG 3)
apparent KD of MS2 coat protein (input ligand: FMN 200 uM): 83.9 nM
apparent KD of MS2 coat protein [1]: 54.7 nM
apparent KD of MS2 coat protein (input ligand: none): 80.8 nM

GUGGUGAAUUAAGGAUAUCGAGUCUAGAUGUUAAACAUGAGGAUCACCCAUGUGGGUUGCGGUGUCGAGAAGGUAAUUUACGGG [salish99_SSNG2_r04_508] (Eterna round: R96, puzzle: Same State NG 2)
apparent KD of MS2 coat protein [1]: 52.6 nM

GUGGUGAAUUAAGGAUAUCGAGUCUAGAUGUUAAACAUGAGGAUCACCCAUGUGGGUUGCGGUGUCGAGAAGGUGGUUUACGGG [salish99_SSNG2_r04_510] (Eterna round: R96, puzzle: Same State NG 2)
apparent KD of MS2 coat protein (input ligand: FMN 200 uM): 63.2 nM
apparent KD of MS2 coat protein [1]: 84 nM
apparent KD of MS2 coat protein (input ligand: none): 72.3 nM

GUUACAUGAGGAUCACCCAUGUAUGUGUGGGAGUAAGUGUCUUAGGAUAUCUAGUAUUUAAAUUAAGAGAAGGAAGAUUGUUGU [JMF's solution 9] (Eterna round: R96, puzzle: Same State NG 3)
apparent KD of MS2 coat protein (input ligand: FMN 200 uM): 117 nM
apparent KD of MS2 coat protein [1]: 84.8 nM
apparent KD of MS2 coat protein (input ligand: none): 113 nM

GUUACAUGAGGAUCACCCAUGUAUGUGUGGGAGUAAGUGUCUUAGGAUAUCUAGUAUUUAAUCUAAGAGAAGGAAGAUUGUUGU [JMF's solution 65] (Eterna round: R96, puzzle: Same State NG 3)
apparent KD of MS2 coat protein (input ligand: FMN 200 uM): 105 nM
apparent KD of MS2 coat protein [1]: 74.1 nM
apparent KD of MS2 coat protein (input ligand: none): 128 nM

GUUACAUGAGGAUCACCCAUGUAUGUGUGGGAGUAAGUGUCUUAGGAUAUCUAUGAUUUAAUUUUAGAGAAGGAAGAUUGUUGU [JMF's solution 86] (Eterna round: R96, puzzle: Same State NG 3)
apparent KD of MS2 coat protein (input ligand: FMN 200 uM): 112 nM
apparent KD of MS2 coat protein [1]: 70.9 nM
apparent KD of MS2 coat protein (input ligand: none): 90.8 nM

GUUACAUGAGGAUCACCCAUGUAUGUGUGGGAGUAAGUGUCUUAGGAUAUCUAUUAUUUAAUUUAAGAGAAGGAAGAUUGUUGU [JMF's solution 22] (Eterna round: R96, puzzle: Same State NG 3)
apparent KD of MS2 coat protein [1]: 82.3 nM

GUUACAUGAGGAUCACCCAUGUAUGUGUGGGAGUAAGUGUCUUAGGAUAUCUAUUAUUUGAAUUAAGAGAAGGAAGAUUGUUGU [JMF's solution 21] (Eterna round: R96, puzzle: Same State NG 3)
apparent KD of MS2 coat protein (input ligand: FMN 200 uM): 128 nM
apparent KD of MS2 coat protein [1]: 69.8 nM
apparent KD of MS2 coat protein (input ligand: none): 103 nM

GUUACAUGAGGAUCACCCAUGUGUGUGUGGGAGUGAGUGGCUUAGGAUAUCUAUGAUUUAAGUUAAGAGAAGGGAGAUUGUUGU [SS-NG3-LRO04] (Eterna round: R96, puzzle: Same State NG 3)
apparent KD of MS2 coat protein (input ligand: FMN 200 uM): 441 nM
apparent KD of MS2 coat protein [1]: 330 nM
apparent KD of MS2 coat protein (input ligand: none): 344 nM

GUUAGGAAUCUAGCAAACAUGAGGAUCACCCAUGUUAGUGGGAAGGAUAUGGUACAGAAACUGUACCAGAAGGUCUUAUUAAUU [Omei SS(NG) 3 AV2] (Eterna round: R96, puzzle: Same State NG 3)
apparent KD of MS2 coat protein (input ligand: FMN 200 uM): 58.3 nM
apparent KD of MS2 coat protein [1]: 39.1 nM
apparent KD of MS2 coat protein (input ligand: none): 55.7 nM

UAAAUAAUGUAAGGAUAUACAUGAGGAAUUCUCGUAGAAGGUACAUGACAUGAGGAUCACCCAUGUAUCGCUCAGUAGAGCGUA [Mat - Same State NG 1 - JL mod - D27] (Eterna round: R96, puzzle: Same State NG 1)
apparent KD of MS2 coat protein [1]: 48.3 nM

UAAGAACAUGAGGAUCACCCAUGUGGAAAGAACACAGGAUAUCAUGGAAGAACGAAACCAUGAGAAGGGUGACACG [Raatis] (puzzle: Same State 1)
apparent KD of MS2 coat protein [2]: 6270 nM
apparent KD of MS2 coat protein [3]: 225 nM
apparent KD of MS2 coat protein [4]: 24.3 nM

UACAAUCUAUCUGAGGAUAUCAUGAAAUAAACAUGAGGAUCACCCAUGUGCAGGAAAACUGCAUAUGAGAAGGCAGAUAGAUUGU [salish99_ss2_r3_059] (puzzle: Same State 2)
apparent KD of MS2 coat protein [2]: 41.1 nM
apparent KD of MS2 coat protein [3]: 662 nM
apparent KD of MS2 coat protein [4]: 1640 nM

UACCAACAAAUAAAACAAGCGUGCUCGUCACAUGAGGAUCACCCAUGUUUAAACGCUGUACCUACAUCCUCAGCGCC [Usatqulale] (puzzle: Sensor for hsa-mir-208a)
apparent KD of MS2 coat protein [2]: 38.9 nM
apparent KD of MS2 coat protein [3]: 31.3 nM
apparent KD of MS2 coat protein [4]: 52 nM

UACCUACCAGGAGGAUAUACAAACCCGAAAGGAGUAGAAGGCCUGAGUACUAACAUGAGGAUCACCCAUGUAGCGCCAGUUCGC [Eternabot solution 10] (Eterna round: R96, puzzle: Same State NG 1)
apparent KD of MS2 coat protein (input ligand: FMN 200 uM): 18.2 nM
apparent KD of MS2 coat protein [1]: 15.1 nM
apparent KD of MS2 coat protein (input ligand: none): 17.4 nM

UACUGAGUCGUAGGAUAUGUAGGAUAUGGCGAGAGCUAAGCUUGGAAGUCACUUCAGCCAGAAGGACAGAAGGACGACUCUCUC [pwkr ssNG2 2FMN + F9.13] (Eterna round: R96, puzzle: Same State NG 2)
apparent KD of MS2 coat protein (input ligand: FMN 200 uM): 40 nM
apparent KD of MS2 coat protein [1]: 273 nM
apparent KD of MS2 coat protein (input ligand: none): 51.1 nM

UAGAAACAUGAGGAUCACCCAUGUGUCAAAGACAUAGGAUAUCACAACUGGCGCCAGUCGUGAGAAGGGUGGUAAA [Usonesat] (puzzle: Same State 1)
apparent KD of MS2 coat protein [2]: 229 nM
apparent KD of MS2 coat protein [3]: 53.6 nM
apparent KD of MS2 coat protein [4]: 84.7 nM

UAGAGAGGAAGCGAGGAUAUCGUGGGAGGAACAUGAGGAUCACCCAUGUGUGAUGUUGAGAGGAACGAGAAGGCGCAGGAAAGUA [JR_SS2_Sub078] (puzzle: Same State 2)
apparent KD of MS2 coat protein [2]: 83.3 nM
apparent KD of MS2 coat protein [3]: 83.1 nM
apparent KD of MS2 coat protein [4]: 143 nM

UAGAGAGGAAGCGAGGAUAUCGUGUGAGGAACAUGAGGAUCACCCAUGUGUGAUGUUGAGAGAGACGAGAAGGCGCAGGAAAUUA [JR_SS2_Sub082] (puzzle: Same State 2)
apparent KD of MS2 coat protein [3]: 116 nM

UAGCACUGUCGAGAGGAUAUGCGGUGAUGGACAUGAGGAUCACCCAUGUUAGCGACAGCAUCACGGCAGAAGGCUCUACUGCUGC [Soteed Omei mod 35] (puzzle: Same State 2)
apparent KD of MS2 coat protein [2]: 11.7 nM
apparent KD of MS2 coat protein [3]: 15.6 nM
apparent KD of MS2 coat protein [4]: 13.7 nM

UAGGAACAUGAGGAUCACCCAUGUACCUCAUAUGGAGAAACACAGGAUAUGCUCAGCGAAAGAGAGCAGAAGGGUGAAGAGAGG [Default title] (Eterna round: R96, puzzle: Same State NG 3)
apparent KD of MS2 coat protein (input ligand: FMN 200 uM): 23.6 nM
apparent KD of MS2 coat protein [1]: 27.6 nM
apparent KD of MS2 coat protein (input ligand: none): 31.6 nM

UAGGAUCAACGAGGAUAUAAUAGGUUCAAUUUUUUAUAUUGUUUACAUGAGGAUCACCCAUGUUAUUAGAAGGCGUAUGGGAUU [JR_SSNG2_Sub084] (Eterna round: R96, puzzle: Same State NG 2)
apparent KD of MS2 coat protein [1]: 39.9 nM

UAUCCAUAGAUAGGAUAUCAGUAUACAUGAGGAUCACCCAUGUUAUAUUUGGUUUUAAGUUAGUCUGAGAAGGAUCUUGAUGAA [SameState NG2 #3] (Eterna round: R96, puzzle: Same State NG 2)
apparent KD of MS2 coat protein (input ligand: FMN 200 uM): 12.4 nM
apparent KD of MS2 coat protein [1]: 11.1 nM
apparent KD of MS2 coat protein (input ligand: none): 15.6 nM

UAUGAAUAGCAAGGAUAUUGAUAACAUGAGGAUCACCCAUGUAAUUGAUCGAGUUAGAUCAGUUACAAGAAGGUGCAAUUGAUU [JR_SSNG2_Sub035] (Eterna round: R96, puzzle: Same State NG 2)
apparent KD of MS2 coat protein [1]: 19.4 nM

UAUUAAGCUGUAGGAUAUCUAGGAUAUGGACGAGGAUCACCCGAGCAGCAUCAGCGCACCAGAGGAGAGAAGGACGCUUUGGAA [pwkr ssNG2 2F5 2FMN.3] (Eterna round: R96, puzzle: Same State NG 2)
apparent KD of MS2 coat protein (input ligand: FMN 200 uM): 463 nM
apparent KD of MS2 coat protein [1]: 882 nM
apparent KD of MS2 coat protein (input ligand: none): 916 nM

UAUUAAGCUGUAGGAUAUCUAGGAUAUGGACGAGGAUCACCCGAGCAGCAUCAGCGCACCAGAGGAGAGAAGGACGCUUUGGUG [pwkr ssNG2 2F5 2FMN.23] (Eterna round: R96, puzzle: Same State NG 2)
apparent KD of MS2 coat protein (input ligand: FMN 200 uM): 961 nM
apparent KD of MS2 coat protein [1]: 348 nM
apparent KD of MS2 coat protein (input ligand: none): 2730 nM

UAUUUAAUCAUAGGAUAUAGAGUGAAAUUUGGACUAGAAGGAUGUAACAUGAGGAUCACCCAUGUGGUAAGUGGGACACAGUGU [JR_SSNG1_Sub094] (Eterna round: R96, puzzle: Same State NG 1)
apparent KD of MS2 coat protein (input ligand: FMN 200 uM): 206 nM
apparent KD of MS2 coat protein [1]: 85.5 nM
apparent KD of MS2 coat protein (input ligand: none): 129 nM

UAUUUAAUCAUAGGAUAUAGUGUGAAAUUUGGACUAGAAGGAUGUAACAUGAGGAUCACCCAUGUGGUAAGUGGGACACAGUGA [JR_SSNG1_Sub096] (Eterna round: R96, puzzle: Same State NG 1)
apparent KD of MS2 coat protein [1]: 114 nM
